{
  "source": "the nanobody polyreactivity screen of Harvey et al. (2022)",
  "data": [
    {"assay": "yeast display, Sf9 membrane polyspecificity reagent, FACS + sequencing; frameworks hold sequencing errors", "method_in_brief": "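Galactose-induced (36–48 hours) yeast carrying a synthetic nanobody display library were exposed to 10% biotinylated, detergent-solubilized Sf9 membrane reagent at 4 °C for 1 hour. FACS followed streptavidin microbead enrichment, using low and high (top ~1%) gates for expression (anti-HA) and reagent binding (streptavidin). Colony PCR, MiSeq 2 × 250 sequencing and CDR-length filtering followed. Labels for polyreactivity reflect the gate of origin.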", "values": [
      {"sequence": "QVQLVESGGGLVQAGGSLRLSCAASGLIFKLNAMGWYRQAPGKARELVAAIRASTGSTYYADSVKGRFTISRDNAKNTVYLQMNSLKPEDTAVYYCAVRLRWYFFLMDYWGQGTQVTVSS", "polyreactivity (PSR sort gate)": "high polyreactivity"},
      {"sequence": "QVQLVESGGGLVQAGGSLRLSCAASGLIFLGNAMGWYRQAPGKERELVAAISRSGGTTYYADSVKGRFTISRDNEKNTVYLQMNSLKPEDTAVYYCNAYNPYYRATVSSRGYGYWGQGTQVTVSS", "polyreactivity (PSR sort gate)": "high polyreactivity"},
      {"sequence": "QVQLVESGGGLVQAGGSLRLSCAASGLIFLGYARGWYRQSPGKERELVASIRTGGSTSYADSVKGRFTISRDNAKNTVYLQMNSLKPEDTAVYYCAADRGRPNLPGDYWGQGTQVTVSS", "polyreactivity (PSR sort gate)": "low polyreactivity"},
      {"sequence": "QVQLVESGGGLVQAGGSLRLSCAASGLIFLPYAMGWYRQAPGKERELVAAIRWSDDSTYYADSVKGRFTILRDNAKNTVYLQMNSLKPEDTAVYYCNAYVYRPSYIYNYYYEYDYWGQGTQVTVSS", "polyreactivity (PSR sort gate)": "high polyreactivity"},
      {"sequence": "QVQLVESGGGLVQAGGSLRLSCAASGLIFNLYAMGWYSQAPGKEREFVATITGIGGSTYYADSVKGRFTISRDNAKNTVYLQMNSLKPQDTAVYYCAADAWFLPYNYWGQGTQVTVSS", "polyreactivity (PSR sort gate)": "low polyreactivity"},
      {"sequence": "QVQLVESGGGLVQAGGSLRLSCAASGLIFPIYTMGWYRQAPGKERELVAAISSRGGSTYYADSVKGRFTISRDNAKNTVYLQMNSLKPEDTAVYYCAAQFRFSGMGYWGQGTQVTVSS", "polyreactivity (PSR sort gate)": "high polyreactivity"},
      {"sequence": "QVQLVESGGGLVQAGGSLRLSCAASGLIFPVYTLGWYRPAPGKERELVAAITSSGDSTYYADSVKGRFTISRDNAKNTVYVQMNSLKPEDTAVYYCAARLVEKYGGTYSFDYWGQGTQVTVSS", "polyreactivity (PSR sort gate)": "low polyreactivity"},
      {"sequence": "QVQLVESGGGLVQAGGSLRLSCAASGLIFPYYAMGWYRQAPGKERELVAAISGSGGRTYNADSVKWRFTISRDNAKNTVYLQMNSLKPEDPAVYYCAAAVLDRYTRYIWYIFDYWGQGTQVTVSS", "polyreactivity (PSR sort gate)": "high polyreactivity"},
      {"sequence": "QVQLVESGGGLVQAGGSLRLSCAASGLIFPYYAMGWYRQAPGKERELVATITRSGGNTYYADSVKGRFTISRDNAKNTVYLQMNSLKPEDTAVYYCATRYAGYRSYGYWGQGTQVTVLS", "polyreactivity (PSR sort gate)": "high polyreactivity"},
      {"sequence": "QVQLVESGGGLVQAGGSLRLSCAASGLIFQVYDMGWYRQAPGKERELVAAISSGSNTNYADSVKGRFTISRDNAKNTVYLQMNSLKPEDTAVYYCAASLGYGAMTPDMGYWGQVTQVTVSS", "polyreactivity (PSR sort gate)": "low polyreactivity"},
      {"sequence": "QVQLVESGGGLVQAGGSLRLSCAASGLIFRFYAMGWYRQAPGKERELVAAISSRGGSTYYADSVKGRFTISRDNAKNTVYLQMNSLKPEDTAVYYCAAVFSLIASSYDYWGQGTQVTVSS", "polyreactivity (PSR sort gate)": "high polyreactivity"},
      {"sequence": "QVQLVESGGGLVQAGGSLRLSCAASGLIFRPYAMGWYRQAPGKEREFVAAITWSTGSTYYADSVKGRFTISRDYAKNTVYLQMNSLKPEDTAVYYCAARYTVWRRDYNYWGQGTQVTVSS", "polyreactivity (PSR sort gate)": "high polyreactivity"},
      {"sequence": "QVQLVESGGGLVQAGGSLRLSCAASGLIFRQYPMGWYRQAPGKERELVAAITGSGGRTYYADSVKGRFTISRDNAKNTVYLQMNSLKPEDTAVYYCARPNLLSGDYWGQGTQVTVSS", "polyreactivity (PSR sort gate)": "high polyreactivity"},
      {"sequence": "QVQLVESGGGLVQAGGSLRLSCAASGLIFRRYAMGWYRQAPGKERELVAAITRNGGSTYYADSVKGRFTISRDNAKNTVYLQMNSLKPEDTAVYYCAADRYRRRGGLDYWGQGTQVTVSS", "polyreactivity (PSR sort gate)": "high polyreactivity"},
      {"sequence": "QVQLVESGGGLVQAGGSLRLSCAASGLIFRRYAMGWYRTAPGKERELVAAISSSGSTYYADSVKGRFTISRDNAKNTVYLQMNSLKPEDTAVYYCNKVTGRNADRYGYWGQGTQVTVSS", "polyreactivity (PSR sort gate)": "high polyreactivity"},
      {"sequence": "QVQLVESGGGLVQAGGSLRLSCAASGLIFRRYTMGRYRQATGKERELVAAISRGGASTSYADSVKGRFTISRDNAKNTVYLQMNSLIPEDTAVYYCAATSPRSSRTYAYDYWGQGTQVTVSS", "polyreactivity (PSR sort gate)": "high polyreactivity"},
      {"sequence": "QVQLVESGGGLVQAGGSLRLSCAASGLIFRVYAMGWYRQAPGKERELVATITRGGRTYYADSVKGRFTISRDNAKNTVYLQMNSLKPEDTAVYYCAVLSVRRSYNYWGQGTQVTVSS", "polyreactivity (PSR sort gate)": "high polyreactivity"},
      {"sequence": "QVQLVESGGGLVQAGGSLRLSCAASGLIFRWYAMGWYRQAPGTERELVAAISRRGGTTNYADSVKGRFTISRDNAKNTVYLQMNSLKPEDTAVYYCAADYQSVGGAEYDYWGQCTQVTVSS", "polyreactivity (PSR sort gate)": "high polyreactivity"},
      {"sequence": "QVQLVESGGGLVQAGGSLRLSCAASGLIFRYNTMGWYRQAPGKERELVAAITSSGGSTYYADSVKGRFTISRDNAKNTVYLQMNSLKPEDTAVYYCAKRSFYFSDYDYWGQGTQVTVSS", "polyreactivity (PSR sort gate)": "high polyreactivity"},
      {"sequence": "QVQLVESGGGLVQAGGSLRLSCAASGLIFRYYAMGWYRQAPGKERELVAAISWSGASTYYADSVKGRFTISRDNAKNTVYLQMNSLKPEDTAVYYCGRVSYYYPSEYNYWGQGTQVTVSS", "polyreactivity (PSR sort gate)": "high polyreactivity"},
      {"sequence": "QVQLVESGGGLVQAGGSLRLSCAASGLIFRYYAMGWYRQAPGKERELVAVINYSGGRTYYADSVKGRFTISRDNAKNTVYLQMNSLKPEDTAVYYCAASFASKYEYWGQGTQVTVSS", "polyreactivity (PSR sort gate)": "high polyreactivity"},
      {"sequence": "QVQLVESGGGLVQAGGSLRLSCAASGLIFRYYAMGWYRQAPGKERELVAVISRRGDSTYYADSVKGRFTISRDNAKNTVYLHMNSLKPEDTAVYYCAAQAFVSYFKFRGGYWGQGTQVTVSS", "polyreactivity (PSR sort gate)": "high polyreactivity"},
      {"sequence": "QVQLVESGGGLVQAGGSLRLSCAASGLIFRYYTMGWYRQAPGKERELVATITKSGSSTYYADSVKGRFTISRDNAKNTVYLQMNSLKPEDTAVYYCAARAYPSYPRGVYAYYYWGQGTQVTVSS", "polyreactivity (PSR sort gate)": "high polyreactivity"},
      {"sequence": "QVQLVESGGGLVQAGGSLRLSCAASGLIFSAYAMGWYRQAPGKERELVAAISRRGTSTYYADSVKGRFTISRDNAKNTVYLQMNSLKPEDTGVYYCAADGYVFEGDYWGQGTQVTVSS", "polyreactivity (PSR sort gate)": "high polyreactivity"},
      {"sequence": "QVQLVESGGGLVQAGGSLRLSCAASGLIFSAYAMGWYRQAPGKERELVAGISRRGSTYYADSVKGRFTISRDNAKNTVYLEMNCLKPEDTAVYYFAAFFRVRFRASGYDYWGQGTQVTVSS", "polyreactivity (PSR sort gate)": "high polyreactivity"},
      {"sequence": "QVQLVESGGGLVQAGGSLRLSCAASGLIFSRNAMGWNRPAPGKERELVAAISTGGSTYYADSVKGRFTISRDNAKNTVYLQMNRLKPVDTAVYYCAAAPGYIYEYWGQGTQVTVSS", "polyreactivity (PSR sort gate)": "low polyreactivity"},
      {"sequence": "QVQLVESGGGLVQAGGSLRLSCAASGLIFSRYTMGWYRQAPGKERELVAAISKTGSSTYYADSVKGRFTISRDNAKNTVYLQMNSLKPEDTAVYYCAAETGTGETRYYRYWDYYYWGQGTQVTVSS", "polyreactivity (PSR sort gate)": "high polyreactivity"},
      {"sequence": "QVQLVESGGGLVQAGGSLRLSCAASGLIFSSNAMGWYRQAPGKERELVAAISRRGANTYYADSVKGRFTISRDNAKNTVYLQMNSLKPQDTAVYYCAKRYVGRGTSYQDYYWGQGTQVTVSS", "polyreactivity (PSR sort gate)": "high polyreactivity"},
      {"sequence": "QVQLVESGGGLVQAGGSLRLSCAASGLIFSSYAMGLNRQAPGKEREFVAAISRTGGITYYADSVKGRFTISRDYAKNTVYLQMNSLKPEDTAVYYCNARWYDPTLKVGYWGQVTQVTVSS", "polyreactivity (PSR sort gate)": "high polyreactivity"},
      {"sequence": "QVQLVESGGGLVQAGGSLRLSCAASGLIFSSYAMGWYRQAPGKERELVAAISRSGGRTYYADSVKGRFTISRDNAKNTVYLQMNSLKPEDTAVYYCAADRFRSGLDRPEMDYWGQGTQVTVSS", "polyreactivity (PSR sort gate)": "high polyreactivity"},
      {"sequence": "QVQLVESGGGLVQAGGSLRLSCAASGLIFSYKTMGWYRQAPGKERELVAAITSGGRTYYADSVKGRFTISRDNAKNTVYLQMNSLKPEDTAVYYCAVLSKWRYDYWGQGTQVTVSS", "polyreactivity (PSR sort gate)": "high polyreactivity"},
      {"sequence": "QVQLVESGGGLVQAGGSLRLSCAASGLIFSYNAMGWYRQAPGKERELVAAISYSGGSTYYADSVKGRFTISRDNAKNTVYLQMNSLKPEDTAVYYCAAVLSPDFYYWGQGTQVTVSS", "polyreactivity (PSR sort gate)": "high polyreactivity"},
      {"sequence": "QVQLVESGGGLVQAGGSLRLSCAASGLIFSYNAMGWYRQAPGKVRELVATSRRVGSTHYADSVKGRFTISRDNAKNTVYLPMNSLKPEDTAVYDCAARSLRYGRGMYYWGQGTQGTVSS", "polyreactivity (PSR sort gate)": "high polyreactivity"},
      {"sequence": "QVQLVESGGGLVQAGGSLRLSCAASGLIFSYYAMGWYRQAPGKERELVAAISRGGSTNYADSVKGRFTISRDDAKNTVYLQMNSLKPEDTAVYYCAARWQWLNGYYYWGQGTQVTVSS", "polyreactivity (PSR sort gate)": "high polyreactivity"},
      {"sequence": "QVQLVESGGGLVQAGGSLRLSCAASGLIFTGNVMGWYRQAPGKERELVAAISRSGGRTYYADSVKGRFTISRDNAKNTVYLQMNSLKPEDTAVYYCNKVSPERVYYGSYFRYYYWGQGTQVTVSS", "polyreactivity (PSR sort gate)": "high polyreactivity"},
      {"sequence": "QVQLVESGGGLVQAGGSLRLSCAASGLIFTVYAMGWYRQAPGKERELVAAISGTGGSTYYADSVKGRFTISRDNAKNTVYLQMNSLIPEDTAVYYCAAVPIIRLATTSSSRGDYWGQGTQVTVSS", "polyreactivity (PSR sort gate)": "low polyreactivity"},
      {"sequence": "QVQLVESGGGLVQAGGSLRLSCAASGLIFTYYAMGWYRQAPGKERELVAAISSSGVNTYYADSVKGRFTISRDNAKNTVYLQMNSLKPEDTAVYYCAAELQPSPVGGIIQYGFDYWGQGTPVTVSS", "polyreactivity (PSR sort gate)": "low polyreactivity"},
      {"sequence": "QVQLVESGGGLVQAGGSLRLSCAASGLIFVANAMGWYRQAPGKERELVAAISRSGGITYYADSVKGRFTISRDNAKNTVYLQMNSLKPQDTAVYYCAKTLPSNGHYDYWGQGTQVTVSS", "polyreactivity (PSR sort gate)": "low polyreactivity"},
      {"sequence": "QVQLVESGGGLVQAGGSLRLSCAASGLIFVDNAMGLYRQAPGKERELVAAIDSGGSTNYADSVKGRFTISRDNAKTTVYLQMNSLNPEDTAVYYCAADWIYAPWYYQESVEYYYWGQGTQVTVSS", "polyreactivity (PSR sort gate)": "low polyreactivity"},
      {"sequence": "QVQLVESGGGLVQAGGSLRLSCAASGLIFVDNAMGWYRPAPGKEREVVAAIDSGGSTNYADSVKGRFTISRDNAKNTVYLQMNSLKPEDTAVYYCAADWIYAPWYYQESVEYYYWGQGTQVTVSS", "polyreactivity (PSR sort gate)": "low polyreactivity"},
      {"sequence": "QVQLVESGGGLVQAGGSLRLSCAASGLIFVFYAMGWYRQAPGKERELVAAISRSGTSTYADSVKGRFTISRDNAKNTVYLQMNSLKPEDTAVYYCNAYRYYSPYGYWGQGTQVTVSS", "polyreactivity (PSR sort gate)": "low polyreactivity"},
      {"sequence": "QVQLVESGGGLVQAGGSLRLSCAASGLIFVKYAMGWYRQAPGKERELVADITSTGGSTYYADSVKGRFTISRDNAKNTVYLQMNSLKPEDTAVYYCATDYGYYDYWGQGTQVTVSS", "polyreactivity (PSR sort gate)": "low polyreactivity"},
      {"sequence": "QVQLVESGGGLVQAGGSLRLSCAASGLIFVNAMGWYRQAPGKEREFVAAITYSTGSTYYADSVKGRFTISRDNAKNTVYLQMNRLKPEDTAVYYCAKDRSGHGTERDYWGQGTQVTVSS", "polyreactivity (PSR sort gate)": "low polyreactivity"}
    ]}
  ]
}
